Experimental data taken from PMC10960022, “An ARF gene mutation creates flint kernel architecture in dent maize”.

T1: ARFTF17 (Zea mays (B73?)) (UniProt D9HNU4)
T1 sequence: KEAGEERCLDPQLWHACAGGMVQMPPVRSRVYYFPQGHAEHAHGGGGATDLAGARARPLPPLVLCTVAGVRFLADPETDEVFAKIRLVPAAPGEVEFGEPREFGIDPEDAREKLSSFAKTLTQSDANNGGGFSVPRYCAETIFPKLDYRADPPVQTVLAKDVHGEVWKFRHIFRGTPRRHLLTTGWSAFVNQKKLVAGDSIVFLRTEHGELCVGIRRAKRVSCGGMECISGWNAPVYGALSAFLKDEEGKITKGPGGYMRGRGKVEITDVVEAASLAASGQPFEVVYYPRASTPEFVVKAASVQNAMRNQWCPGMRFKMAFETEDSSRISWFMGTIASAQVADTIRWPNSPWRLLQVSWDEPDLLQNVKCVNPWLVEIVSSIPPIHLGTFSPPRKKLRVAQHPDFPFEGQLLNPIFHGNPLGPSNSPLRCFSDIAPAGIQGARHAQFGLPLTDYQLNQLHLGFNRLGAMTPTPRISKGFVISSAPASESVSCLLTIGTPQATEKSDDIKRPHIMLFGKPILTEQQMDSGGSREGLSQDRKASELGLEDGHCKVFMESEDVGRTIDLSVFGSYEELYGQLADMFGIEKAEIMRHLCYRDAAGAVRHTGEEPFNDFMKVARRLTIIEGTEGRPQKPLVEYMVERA

T2: ARFTF17 (Zea mays, UniProt D9HNU4 2-644)
T2 sequence: T1 sequence

B1: P3(2x) (dsDNA)
DNA 1: AAGGGAGACAACTTGTCTCCCAAAGGGAGACAACTTGTCTCCCAAAGGGAGACAACTTGTCTCCCA
DNA 2: TGGGAGACAAGTTGTCTCCCTTTGGGAGACAAGTTGTCTCCCTTTGGGAGACAAGTTGTCTCCCTT

Key:
[1] = molecular target: T1, ARFTF17 (Zea mays (B73?)); assay: EMSA; settings: 20 mM Tris-HCl pH 7.9, 40 mM KCl, 2 mM MgCl2, 0.2 mM DTT, 5% glycerol, 0.04 mg/mL BSA, 1 ug salmon sperm DNA in 20 uL, room temperature 30 min; 0.05 pmol …
ARFTF17 = molecular target: T2, ARFTF17; assay: EMSA; 20 mM Tris-HCl pH 7.9, 40 mM KCl, 2 mM MgCl2, 0.2 mM DTT, 5% glycerol, 0.04 mg/mL BSA, 1 ug salmon sperm DNA in 20 uL, room temperature 30 min; 0.05 pmol probe, 100 ng protein; native 4% PAGE at 4 C; settings: protein: recombinant; tags: His (pET30a); chain copies: 2; blunt

Molecule	binding [1]	binding result (ARFTF17)
AATGCACAATCAAATAAATACTCAACATGATGCATATTTCTATTTATATATTTTTATAGTAATTGTTTAATCCTTTTGGTTAAATAACATGCTTCGAAATATGCCATACAACAATTTTCAGTTTTGAAGAAAT (double strand) [PIN1-P]	no binding	–
B1	–	no binding
